Laboratory results: patent US12072338B2, “Pharmaceutical peptides for the treatment of inflammatory diseases” (PROTAGONISTS LTD., priority 2007, dated 2024)
Read-outs that look alike come from different tables or passages of the source.

Columns and labels:
MCP-2 = target: T1, MCP-2 (Homo sapiens, UniProt P80075); assay: Micro-array analysis of chemokine binding peptides: MCP-2; settings: limit = start of the upper 75% of that peptide's response range
T1 construct: purchased 300-15
T1 sequence (P80075 24-99): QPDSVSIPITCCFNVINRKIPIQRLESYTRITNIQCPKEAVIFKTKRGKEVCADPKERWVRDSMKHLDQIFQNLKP
How it was run: (§1)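 Chemokines printed at 25 and 50 μg/ml on protein microarray slides, blocked, then probed 1 h at RT with peptide-displaying recombinant phage (10^7 pfu/μl). Bound phage detected with mouse anti-M13 then Cy3 anti-mouse IgG. Cy3 fluorescence scanned, reported as relative fluorescence versus chemokine concentration.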

C-TAC = target: T2, C-TAC (Homo sapiens, UniProt Q9Y4X3); assay: Micro-array analysis of chemokine binding peptides: C-TAC
T2 construct: purchased 300-54
T2 sequence (Q9Y4X3 25-112): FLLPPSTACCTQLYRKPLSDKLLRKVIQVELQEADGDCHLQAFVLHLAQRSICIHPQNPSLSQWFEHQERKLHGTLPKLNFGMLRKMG
Description: (1) Printing: Chemokine (CK) solution (in water) was serially diluted with Print Reagent (GenTel BioSurfaces USA) to final concentrations of 50 μg and 25 μg/ml. BSA/BSA-Biotin control solutions (in water) were diluted with Print Reagent to 100 μg/ml. Amplified stock of M13 phage control (M13KEgIII Cloning Vector, New England Biolabs, Cat.No.E8101S) was stored in Tris Buffered Saline (TBS; pH7.5, 4° C.) and diluted with Print Reagent to the working titre (10^8 pfu/μl). An automated spotting robot (16 pin print tool, 0.4 mm head; BioRobotics, UK) was used to print the CK/BSA control/M13 control, 5 repeats per sample (CK 25 μg/ml and 50 μg/ml; BSA 100 μg/ml; M13 20 μl), on PATH Protein Microarray Slides (GenTel, Prod.No. 2-1005/-1025) at […], and 50-70% relative humidity. Printed micro-array slides were stored at Room Temperature (RT) or 4° C. for at least 24 h before use.
(2) Blocking: Block Buffer (500 μl/partition; PATHblock, GenTel, Prod.No. 2-1014) was applied to the slide for 1 hour at room temp (RT). After removal of Block Buffer, the slide was air dried for 25 minutes;
(3) Phage Presented Peptide Binding: Amplified recombinant phage stock was stored in TBS and diluted with Wash Buffer to working titer (10^7 pfu/μl). Recombinant phage suspension (300 μl) was applied per partition and incubated at RT for 1 hour with gentle agitation.
(4) First Washing: The slides were washed twice with Wash Buffer 300 μl/partition).
(5) Primary Antibody (Ab) Labeling: The slides were incubated with the Primary Ab (1 mg/ml diluted ×2500 (Wash Reagent), 300 μl; Mouse Anti-M13 monoclonal Ab; Amersham Biosciences, UK; Product Code 27-9420-01) for 45 minutes at RT. […]
(11) Analysis: Quantitative analysis of micro-array was performed by the SpotReader program of Niles Scientific (USA) and presented as Relative Fluorescence (RF) as a function of CK concentration. Micro-array readout (Cy3 fluorescence) was quantified to determine the relative binding affinities of a CBP for the CKs and by inference, the specificity of the CBP for binding to a CK.

SDF1-α = target: T3, SDF1-α (Homo sapiens, UniProt P48061); assay: Micro-array analysis of chemokine binding peptides: SDF1-α
T3 construct: purchased 300-28a
How it was run: as §1

I-309 = target: T4, I-309 (Homo sapiens, UniProt P22362); assay: Micro-array analysis of chemokine binding peptides: I-309; settings: for binding to I-309 with relatively high affinity (Relative Fluorescence Units): limit = start of the upper 75% of that peptide's response range
T4 construct: purchased 300-37
T4 sequence (P22362 24-96): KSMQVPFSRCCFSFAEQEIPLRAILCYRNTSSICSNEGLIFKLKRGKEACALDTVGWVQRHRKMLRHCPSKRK
How it was run: as §1

TECK = target: T5, TECK (Homo sapiens, UniProt O15444); assay: Micro-array analysis of chemokine binding peptides: TECK
T5 construct: purchased 300-45
T5 sequence (O15444 24-150): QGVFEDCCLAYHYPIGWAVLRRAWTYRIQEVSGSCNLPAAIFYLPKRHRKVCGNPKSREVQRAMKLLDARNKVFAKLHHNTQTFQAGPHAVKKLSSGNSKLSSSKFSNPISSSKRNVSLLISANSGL
How it was run: as §1

SDF1-β = target: T6, SDF1-β (Homo sapiens, UniProt P48061); assay: Micro-array analysis of chemokine binding peptides: SDF1-β
T6 construct: purchased 300-28b
How it was run: as §1

Fractalkine = target: T7, Fractalkine (Homo sapiens, UniProt P78423); assay: Micro-array analysis of chemokine binding peptides: Fractalkine
T7 construct: purchased 300-31
T7 sequence (P78423 25-100 limits assumed): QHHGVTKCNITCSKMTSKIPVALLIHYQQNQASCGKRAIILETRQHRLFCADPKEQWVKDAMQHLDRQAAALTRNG
How it was run: as §1

Lymphotactin = target: T8, Lymphotactin (Homo sapiens, UniProt P47992); assay: Micro-array analysis of chemokine binding peptides: Lymphotactin
T8 construct: purchased 300-20
T8 sequence (P47992 22-114): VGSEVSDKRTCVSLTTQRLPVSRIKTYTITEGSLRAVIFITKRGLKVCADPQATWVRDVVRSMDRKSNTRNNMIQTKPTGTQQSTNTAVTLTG
How it was run: as §1

IL-8 = assay: Micro-array analysis of chemokine binding peptides: IL-8; settings: for binding to IL-8 with relatively high affinity (Relative Fluorescence Units): limit = start of the upper 75% of that peptide's response range
How it was run: as §1

BCA-1 = target: T9, BCA-1 (Homo sapiens, UniProt O43927); assay: Micro-array analysis of chemokine binding peptides: BCA-1
T9 construct: purchased 300-47
T9 sequence (O43927 23-109): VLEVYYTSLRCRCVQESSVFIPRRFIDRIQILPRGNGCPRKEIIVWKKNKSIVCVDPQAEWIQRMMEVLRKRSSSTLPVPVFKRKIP
How it was run: as §1

I-TAC = target: T10, I-TAC (Homo sapiens, UniProt O14625); assay: Micro-array analysis of chemokine binding peptides: I-TAC; settings: for binding to I-TAC with relatively high affinity (Relative Fluorescence Units): limit = start of the upper 75% of that peptide's response range
T10 construct: purchased 300-46
T10 sequence (O14625 22-94): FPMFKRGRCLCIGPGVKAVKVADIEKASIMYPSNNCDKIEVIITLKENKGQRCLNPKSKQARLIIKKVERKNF
How it was run: as §1

Eotaxin 3 = target: T11, Eotaxin 3 (Homo sapiens, UniProt Q9Y258); assay: Micro-array analysis of chemokine binding peptides: Eotaxin 3; settings: for binding to Eotaxin 3 with relatively high affinity (Relative Fluorescence Units): limit = start of the upper 75% of that peptide's response range
T11 construct: purchased 300-48
T11 sequence (Q9Y258 24-94): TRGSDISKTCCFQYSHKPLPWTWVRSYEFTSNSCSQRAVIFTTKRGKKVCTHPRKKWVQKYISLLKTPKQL
How it was run: as §1

MCP-4 = target: T12, MCP-4 (Homo sapiens, UniProt Q99616); assay: Micro-array analysis of chemokine binding peptides: MCP-4; settings: limit = start of the upper 75% of that peptide's response range
T12 construct: purchased 300-24
How it was run: as §1

[1] = limit = start of the upper 75% of that peptide's response range

T12 sequence (Q99616 17-98): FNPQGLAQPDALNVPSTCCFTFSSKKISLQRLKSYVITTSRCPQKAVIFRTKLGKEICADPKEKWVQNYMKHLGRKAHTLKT
IL-8, sequence (P10145 28-99 limits assumed): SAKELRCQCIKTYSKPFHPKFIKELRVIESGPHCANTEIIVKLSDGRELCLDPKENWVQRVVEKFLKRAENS
T6 sequence (P48061 22-93): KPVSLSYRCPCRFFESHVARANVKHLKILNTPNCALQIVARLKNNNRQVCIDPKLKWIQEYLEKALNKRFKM
T3 sequence (P48061 22-89 limits assumed): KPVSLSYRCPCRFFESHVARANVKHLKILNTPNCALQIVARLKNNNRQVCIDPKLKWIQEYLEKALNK

Row | binding to MCP-2 with relatively high affinity (Relative Fluorescence Units) (MCP-2) | binding to C-TAC, stated in words (C-TAC) | binding to SDF1-α, stated in words (SDF1-α) | binding to I-309 with relatively high affinity (Relative Fluorescence Units) (I-309) | binding to TECK, stated in words (TECK) | binding to SDF1-β, stated in words (SDF1-β) | binding to Fractalkine, stated in words (Fractalkine) | binding to Lymphotactin, stated in words (Lymphotactin) | binding to IL-8 with relatively high affinity (Relative Fluorescence Units) (IL-8) | binding to BCA-1, stated in words (BCA-1) | binding to I-TAC with relatively high affinity (Relative Fluorescence Units) (I-TAC) | binding to Eotaxin 3 with relatively high affinity (Relative Fluorescence Units) (Eotaxin 3) | binding to MCP-4 with relatively high affinity (Relative Fluorescence Units) (MCP-4) | binding to IL-8, stated in words (IL-8) | Sequence | further results
1 | > 15,000 RFU | bound | bound | > 15,000 RFU | bound | bound | bound | bound | > 15,000 RFU | bound | > 15,000 RFU | > 15,000 RFU | > 15,000 RFU | – | DYDYGAPC [Ph-p30] | –
2 | > 15,000 RFU | bound | bound | – | bound | bound | bound | bound | – | bound | – | – | > 15,000 RFU | bound | WVFGAAMCK [Ph-p8.8] | binding to I-309, stated in words (I-309): bound; binding to Fractalkine, stated in words (Fractalkine; listed as P8.8): bound specifically and differentially; binding to IL-8, stated in words (IL-8; listed as P8.8): bound specifically and differentially; binding to I-TAC, stated in words (I-TAC): bound; binding to Eotaxin 3, stated in words (Eotaxin 3): bound
3 | > 25,000 RFU | – | – | > 25,000 RFU | – | – | bound specifically and differentially | – | > 25,000 RFU | – | > 25,000 RFU | > 25,000 RFU | > 25,000 RFU | bound specifically and differentially | WVFGNAMCK [P8] | binding to TECK with relatively high affinity (Relative Fluorescence Units) (TECK; [1]): > 25,000 RFU; binding to SDF1-β with relatively high affinity (Relative Fluorescence Units) (SDF1-β; [1]): > 25,000 RFU; binding to Fractalkine with relatively high affinity (Relative Fluorescence Units) (Fractalkine; [1]): > 25,000 RFU; binding to BCA-1 with relatively high affinity (Relative Fluorescence Units) (BCA-1; [1]): > 25,000 RFU
